# Experimental data taken from patent US20240116985A1, “STAPLED PEPTIDES AND METHODS THEREOF” (priority 2020, published 2024).
# Starred links: 1 amine or outer side, 2 acyl side, 3 side chain; linkers in the order of their positions; H or OH if unused. Positions of bridges follow the written chain, without caps; N, C: chain ends. Non-standard residues stand in square brackets, D forms with d. Primed or numbered codes have the meaning given here. PyrS2″ = (S)-3-amino-1-((pent-4-en-1-yloxy)carbonyl)pyrrolidine-3-carboxylic acid (stapling residue), C=CCCCOC(=O)N1CC[C@@](N[*:1])(C(=O)[*:2])C1; (bismethoxyethylamine)GlnR = [bismethoxyethylamine]GlnR, N5,N5-bis(2-methoxyethyl)-L-glutamine, COCCN(CCOC)C(=O)CC[C@H](N[*:1])C(=O)[*:2]; B5(4) = 2,2-bis(4-pentenyl)glycine = 2-amino-2-(pent-4-en-1-yl)hept-6-enoic acid (stitching residue), C=CCCCC(CCCC=C)(N[*:1])C(=O)[*:2]; B5(5) = 2,2-bis(4-pentenyl)glycine, 2-amino-2-(pent-4-en-1-yl)hept-6-enoic acid (stitching residue), C=CCCCC(CCCC=C)(N[*:1])C(=O)[*:2]; TfeGA = (S)-2-amino-3-((carboxymethyl)(2,2,2-trifluoroethyl)amino)propanoic acid, O=C([C@H](CN(CC(=O)[*:3])CC(F)(F)F)N[*:1])[*:2]; PyrS2 = (S)-3-amino-1-((pent-4-en-1-yloxy)carbonyl)pyrrolidine-3-carboxylic acid, C=CCCCOC(=O)N1CC[C@@](N[*:1])(C(=O)[*:2])C1; B5(25) = 2-amino-2-(pent-4-en-1-yl)hept-6-enoic acid (stitching residue), C=CCCCC(CCCC=C)(N[*:1])C(=O)[*:2]; B5 = 2-amino-2-(pent-4-en-1-yl)hept-6-enoic acid, C=CCCCC(CCCC=C)(N[*:1])C(=O)[*:2]; PyrR = (R)-1-((allyloxy)carbonyl)-3-aminopyrrolidine-3-carboxylic acid; Phe(3-COOH) = N[C@@H](Cc1cccc(C(=O)O)c1)C(=O)O; 2F3MeF = Cc1cccc(C[C@H](N[*:1])C(=O)[*:2])c1F; Phe(2-CF3) = N[C@@H](Cc1ccccc1C(F)(F)F)C(=O)O; Ala(4-thiazolyl) = N[C@@H](Cc1cscn1)C(=O)O; Phe(2-Cl) = N[C@@H](Cc1ccccc1Cl)C(=O)O; dαMeGly(allyl) = C=CC[C@@](C)(N)C(=O)O; Bta = N[C@@H](Cc1csc2ccccc12)C(=O)O; Lys(iPr) = CC(C)NCCCC[C@H](N)C(=O)O; αAllylPro = C=CC[C@@]1(C(=O)O)CCCN1; tBuAla = CC(C)(C)C[C@H](N)C(=O)O; 2Thi = N[C@@H](Cc1cccs1)C(=O)O; 3Thi = N[C@@H](Cc1ccsc1)C(=O)O; Cha = N[C@@H](CC1CCCCC1)C(=O)O; R5 = C=CCCC[C@@](C)(N)C(=O)O; hSer = N[C@@H](CCO)C(=O)O; Nle = CCCC[C@H](N)C(=O)O; Abu = CC[C@H](N)C(=O)O; Aib = CC(C)(N)C(=O)O
# B1: I-2569 (peptide)
# peptide: Ac-[PyrR]ED[tBuAla][B5(25)]D[Phe(3-COOH)]AAFL[PyrS2″][Phe(2-CF3)][Bta]Q-NH2
# modifications: staple 1-5, 5-12 (inferred); not fully specified; printed as Ac-PyrR-Glu-Asp-Npg-B5-Asp-3COOHF-Ala-Ala-Phe-Leu-PyrS2-2F3MeF-BztA-Gln-NH2
# B2: I-2568 (peptide)
# peptide: Ac-[PyrR]AD[tBuAla][B5(25)]D[Phe(3-COOH)]AAFL[PyrS2″][Phe(2-CF3)][Bta]Q-NH2
# modifications: staple 1-5, 5-12 (inferred); not fully specified; printed as Ac-PyrR-Ala-Asp-Npg-B5-Asp-3COOHF-Ala-Ala-Phe-Leu-PyrS2-2F3MeF-BztA-Gln-NH2
# Molecular target: full-length beta-Catenin (Uniprot ID P35222) (Homo sapiens (Human)) (UniProt P35222)
# Sequence (P35222 whole entry, one chain of several): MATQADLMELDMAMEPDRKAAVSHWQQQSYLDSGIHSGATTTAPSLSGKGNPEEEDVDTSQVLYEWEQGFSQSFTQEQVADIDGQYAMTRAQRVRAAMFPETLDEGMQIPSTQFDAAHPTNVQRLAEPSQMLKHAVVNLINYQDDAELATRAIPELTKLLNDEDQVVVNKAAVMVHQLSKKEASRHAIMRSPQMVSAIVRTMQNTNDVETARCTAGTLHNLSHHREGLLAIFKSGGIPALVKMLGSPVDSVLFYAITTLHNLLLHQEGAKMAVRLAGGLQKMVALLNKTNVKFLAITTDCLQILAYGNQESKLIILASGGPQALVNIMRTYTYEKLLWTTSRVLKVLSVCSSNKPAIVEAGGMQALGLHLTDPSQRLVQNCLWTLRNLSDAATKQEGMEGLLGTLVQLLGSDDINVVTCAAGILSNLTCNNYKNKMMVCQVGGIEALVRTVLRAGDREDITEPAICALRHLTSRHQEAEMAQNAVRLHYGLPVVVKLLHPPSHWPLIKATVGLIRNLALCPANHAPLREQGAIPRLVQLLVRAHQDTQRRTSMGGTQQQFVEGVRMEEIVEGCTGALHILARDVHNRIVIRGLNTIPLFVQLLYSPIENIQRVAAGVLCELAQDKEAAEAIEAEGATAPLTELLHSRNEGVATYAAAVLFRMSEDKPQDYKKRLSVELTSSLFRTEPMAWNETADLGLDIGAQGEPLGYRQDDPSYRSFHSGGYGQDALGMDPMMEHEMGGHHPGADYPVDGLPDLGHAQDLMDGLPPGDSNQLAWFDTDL
# Test: fluorescence polarization competition; competitor 5FAM-TCF4 10-53
row,IC50 [nM],Binder
1,10,"Ac-[αAllylPro]D[tBuAla][B5]D[TfeGA][Aib]AFT[PyrS2][Phe(2-Cl)][Bta]Q-NH2 (staple 1-4, 4-11) [I-1693]"

# Molecular target: Bcat-Halo (beta-catenin HaloTag construct expressed in HEK293 cells) (UniProt P35222)
# Sequence (P35222 whole entry): as the sequence (P35222 whole entry, one chain of several) above
# Test: NanoBRET target engagement in HEK293 cells, absolute IC50; competitor TCF4-Luc
row,IC50 [nM],Binder
1,4600,"Ac-[αAllylPro]D[tBuAla][B5]D[TfeGA][Aib]AFT[PyrS2][Phe(2-Cl)][Bta]Q-NH2 (staple 1-4, 4-11) [I-1693]"

# Molecular target: full-length beta-Catenin (Uniprot ID P35222) (Homo sapiens (Human)) (UniProt P35222)
# Test: fluorescence polarization competition; competitor 5FAM-TCF4(10-53) on full-length beta-catenin
row,IC50 [nM],Binder
1,67,"Ac-P[dαMeGly(allyl)]D[tBuAla][B5(4)]D[Phe(3-COOH)]AAFL[PyrS2″][Phe(2-CF3)][Bta]Q-NH2 (staple 5-12, 2-5; also: -CH=CH- in each staple reduced to -CH2-CH2-) [I-2572]"
2,8,"Ac-[αAllylPro]D[tBuAla][B5(4)]D[Phe(3-COOH)][Aib]AF[Abu][PyrS2″][3Thi][Bta][(bismethoxyethylamine)GlnR]-NH2 (staple 1-4, 4-11) [I-2559]"
3,1950,B1
4,8,"Ac-[αAllylPro]D[tBuAla][B5(4)]D[Phe(3-COOH)][Aib]AF[Nle][PyrS2″][3Thi][Bta][(bismethoxyethylamine)GlnR]-NH2 (staple 1-4, 4-11) [I-2554]"
5,4770,B2
6,522,"Ac-P[R5]D[tBuAla][B5(25)]D[Phe(3-COOH)]AAFL[PyrS2″][Phe(2-CF3)][Bta]Q-NH2 (staple 5-12, 2-5) [I-2567]"
7,181,"Ac-P[dαMeGly(allyl)]D[tBuAla][B5(25)]D[Phe(3-COOH)]AAFL[PyrS2″][Phe(2-CF3)][Bta]Q-NH2 (staple 5-12, 2-5) [I-2566]"

# Molecular target: full-length beta-Catenin (Uniprot ID P35222) (Homo sapiens (Human)) (UniProt P35222)
# Test: fluorescence polarization competition; 10 nM full-length beta-catenin + 10 nM 5FAM-TCF4(10-53), peptide titrated
row,IC50 [nM],Binder
1,2330,"Ac-[αAllylPro]N[Cha][B5(5)]DQ[Lys(iPr)]AFN[PyrS2″][2Thi][Bta][hSer]-NH2 (staple 1-4, 4-11) [I-2075]"
2,43,"Ac-[αAllylPro]D[tBuAla][B5(4)]D[Phe(3-COOH)]AAFF[PyrS2″][Phe(2-CF3)][Bta][dQ]-NH2 (staple 1-4, 4-11) [I-2093]"
3,789,"Ac-[αAllylPro]N[Cha][B5(5)]DQ[Lys(iPr)]AFN[PyrS2″][3Thi][Bta][hSer]-NH2 (staple 1-4, 4-11) [I-2074]"
4,592,"Ac-[αAllylPro]N[Cha][B5(5)]DQ[Lys(iPr)]AFN[PyrS2″][Ala(4-thiazolyl)][Bta][hSer]-NH2 (staple 1-4, 4-11) [I-2071]"
5,49,"Ac-[αAllylPro]D[tBuAla][B5(4)]D[Phe(3-COOH)]AAFL[PyrS2″][Phe(2-CF3)][Bta][dA]-NH2 (staple 1-4, 4-11) [I-2091]"
6,78,"Ac-[αAllylPro]D[tBuAla][B5(4)]D[Phe(3-COOH)]AAFF[PyrS2″][2F3MeF][Bta][dA]-NH2 (staple 1-4, 4-11) [I-2095]"
7,8260,"Ac-[αAllylPro]N[Cha][B5(5)]DQ[Lys(iPr)]A[Ala(4-thiazolyl)]N[PyrS2″]F[Bta][hSer]-NH2 (staple 1-4, 4-11) [I-2072]"
8,398,"Ac-[αAllylPro]N[Cha][B5(5)]DQ[Lys(iPr)]AFN[PyrS2″]F[Bta]-NH2 (staple 1-4, 4-11) [I-2073]"
